Test results: patent US20040019188A1, “Targeting through integrins” (priority 2000, published 2004)

Target: α5β1 integrin (major fibronectin receptor) on HEp-2 cells (human), P08648
Sequence (P08648 42-1049, chain 1 of 2): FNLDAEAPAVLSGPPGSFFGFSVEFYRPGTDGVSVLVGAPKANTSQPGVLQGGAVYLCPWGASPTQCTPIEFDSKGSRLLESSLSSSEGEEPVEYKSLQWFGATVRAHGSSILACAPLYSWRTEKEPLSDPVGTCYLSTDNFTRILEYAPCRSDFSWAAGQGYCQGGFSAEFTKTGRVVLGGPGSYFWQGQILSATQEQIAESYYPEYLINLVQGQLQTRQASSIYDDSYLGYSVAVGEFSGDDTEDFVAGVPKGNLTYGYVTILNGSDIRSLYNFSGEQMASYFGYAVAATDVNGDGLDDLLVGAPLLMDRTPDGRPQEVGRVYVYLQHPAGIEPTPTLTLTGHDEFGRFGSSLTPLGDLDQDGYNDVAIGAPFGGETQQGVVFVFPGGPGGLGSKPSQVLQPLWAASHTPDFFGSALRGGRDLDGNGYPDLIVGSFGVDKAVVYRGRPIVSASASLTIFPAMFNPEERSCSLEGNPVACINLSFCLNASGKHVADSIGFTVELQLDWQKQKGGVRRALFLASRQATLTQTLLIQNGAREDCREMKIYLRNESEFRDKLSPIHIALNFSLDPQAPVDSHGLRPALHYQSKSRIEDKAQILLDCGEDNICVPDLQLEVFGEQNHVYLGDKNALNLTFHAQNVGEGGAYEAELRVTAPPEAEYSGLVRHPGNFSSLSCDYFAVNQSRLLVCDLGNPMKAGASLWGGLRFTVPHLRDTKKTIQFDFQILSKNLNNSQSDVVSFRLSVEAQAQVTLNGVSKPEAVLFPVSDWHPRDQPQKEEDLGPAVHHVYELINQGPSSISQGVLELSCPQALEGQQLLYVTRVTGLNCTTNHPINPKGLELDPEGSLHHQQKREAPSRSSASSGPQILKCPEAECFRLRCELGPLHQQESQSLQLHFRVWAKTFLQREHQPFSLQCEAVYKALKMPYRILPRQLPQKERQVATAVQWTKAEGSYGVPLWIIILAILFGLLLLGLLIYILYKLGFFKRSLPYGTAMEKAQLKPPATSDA
Sequence (P05556 21-798, chain 2 of 2, further chain): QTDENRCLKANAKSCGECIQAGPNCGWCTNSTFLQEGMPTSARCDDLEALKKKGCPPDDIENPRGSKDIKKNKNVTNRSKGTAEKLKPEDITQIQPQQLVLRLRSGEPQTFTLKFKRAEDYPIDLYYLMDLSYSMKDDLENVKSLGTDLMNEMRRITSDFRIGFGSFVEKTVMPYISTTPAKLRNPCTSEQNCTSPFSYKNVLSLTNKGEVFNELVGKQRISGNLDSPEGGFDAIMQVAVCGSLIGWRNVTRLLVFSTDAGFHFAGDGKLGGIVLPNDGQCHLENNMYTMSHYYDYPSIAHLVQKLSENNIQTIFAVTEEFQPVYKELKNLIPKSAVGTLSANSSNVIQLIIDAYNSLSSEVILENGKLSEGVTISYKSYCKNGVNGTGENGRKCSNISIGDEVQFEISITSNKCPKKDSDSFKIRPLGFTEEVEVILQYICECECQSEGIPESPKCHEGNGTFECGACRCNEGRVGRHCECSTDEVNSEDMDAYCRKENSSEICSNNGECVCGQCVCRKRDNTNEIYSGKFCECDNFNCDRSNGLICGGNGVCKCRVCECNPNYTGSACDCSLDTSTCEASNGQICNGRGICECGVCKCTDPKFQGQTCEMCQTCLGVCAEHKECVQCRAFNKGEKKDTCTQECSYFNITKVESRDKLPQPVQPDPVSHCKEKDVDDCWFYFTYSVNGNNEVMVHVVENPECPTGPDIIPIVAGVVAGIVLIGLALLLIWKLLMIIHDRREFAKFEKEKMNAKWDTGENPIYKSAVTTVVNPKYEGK

Binder: RGDS (modifications not checked) [RGDS peptide (Gibco)]
- ID30: 170 µM
